Experimental data as given in patent US20110135573A1, “METALLOPROTEINASE 9 AND METALLOPROTEINASE 2 BINDING PROTEINS” (DYAX CORP., priority 2009, published 2011).

Assays:
[1] = target: Human MMP-9 catalytic domain (BIOMOL, SE-244) (human) (UniProt P14780); assay: cell-based or functional assay
[2] = target: human MMP-2 (Biomol #SE-237) (human) (UniProt P08253); assay: Ki,app, enzyme inhibition assay (fluorogenic peptide substrate)
Sequence of human MMP-2 (Biomol #SE-237) (human) (P08253 110-452 limits assumed): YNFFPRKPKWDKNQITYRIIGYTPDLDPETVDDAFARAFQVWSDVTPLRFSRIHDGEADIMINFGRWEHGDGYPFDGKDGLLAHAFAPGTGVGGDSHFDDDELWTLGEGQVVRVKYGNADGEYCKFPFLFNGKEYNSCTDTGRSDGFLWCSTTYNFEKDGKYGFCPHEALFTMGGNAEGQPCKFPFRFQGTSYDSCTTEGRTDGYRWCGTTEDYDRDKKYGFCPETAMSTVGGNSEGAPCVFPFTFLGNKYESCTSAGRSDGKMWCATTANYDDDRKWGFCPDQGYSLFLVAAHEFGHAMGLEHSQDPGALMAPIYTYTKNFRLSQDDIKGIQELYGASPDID

Sequence of Human MMP-9 catalytic domain (BIOMOL, SE-244) (human) (P14780 107-457 limits assumed): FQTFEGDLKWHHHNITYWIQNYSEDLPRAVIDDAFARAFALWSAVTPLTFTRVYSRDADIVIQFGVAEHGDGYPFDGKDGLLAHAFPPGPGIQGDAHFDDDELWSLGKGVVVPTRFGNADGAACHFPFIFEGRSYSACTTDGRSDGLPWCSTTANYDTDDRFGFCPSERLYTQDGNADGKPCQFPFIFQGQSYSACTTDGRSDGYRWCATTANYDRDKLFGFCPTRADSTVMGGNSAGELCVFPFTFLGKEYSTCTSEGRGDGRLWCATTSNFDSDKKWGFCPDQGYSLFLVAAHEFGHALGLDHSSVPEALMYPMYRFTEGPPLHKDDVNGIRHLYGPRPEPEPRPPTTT

Substance | IC50 (enzyme inhibition) [1] | Ki [2]
Anti-hMMP-9 R&D Systems pAb # AB911 (antibody) | > 500 nM | 
Anti-hMMP-2 R&D Systems pAb # AF902 (antibody) |  | 6 nM
